These results are taken from paper PMC4291175 (Nature protocols, 2014).

Data set [1] addresses GluCl-EGFP (Caenorhabditis elegans glutamate-gated chloride channel, EGFP gene fusion) (Caenorhabditis elegans) (UniProt G5EBR3). In words: SEC.
The data set “SEC” deals with the molecule itself. In words: SEC.

The molecule “GluCl-EGFP (Caenorhabditis elegans glutamate-gated chloride channel, EGFP gene fusion) (from UniProt G5EBR3 21-461) (natural protein)” yielded a stoichiometry N in data set [1] of 5.

B1: cASIC463 (chicken acid-sensing ion channel 1a truncated 64 residues from the carboxy terminus), N-terminal eGFP tagged (domain or fragment, Gallus gallus, UniProt Q1XA76 1-463, looked up)
chain: MMDLKVDEEEVDSGQPVSIQAFASSSTLHGISHIFSYERLSLKRVVWALCFMGSLALLALVCTNRIQYYFLYPHVTKLDEVAATRLTFPAVTFCNLNEFRFSRVTKNDLYHAGELLALLNNRYEIPDTQTADEKQLEILQDKANFRNFKPKPFNMLEFYDRAGHDIREMLLSCFFRGEQCSPEDFKVVFTRYGKCYTFNAGQDGKPRLITMKGGTGNGLEIMLDIQQDEYLPVWGETDETSFEAGIKVQIHSQDEPPLIDQLGFGVAPGFQTFVSCQEQRLIYLPPPWGDCKATTGDSEFYDTYSITACRIDCETRYLVENCNCRMVHMPGDAPYCTPEQYKECADPALDFLVEKDNEYCVCEMPCNVTRYGKELSMVKIPSKASAKYLAKKYNKSEQYIGENILVLDIFFEALNYETIEQKKAYEVAGLLGDIGGQMGLFIGASILTVLELFDYAYEVIKHR
As for B1, the “stoichiometry N” value in “SEC” came to 3.
